Laboratory results from article doi:10.1101/209643 (bioRxiv, 2017).

B1: Cdc11-containing septin complex (Cdc10, Cdc3, Cdc12, Cdc11), wild type (complex)
chain 1: MSAATATAAPVPPPVGISNLPNQRYKIVNEEGGTFTVMLCGESGLGKTTFINTLFQTVLKRADGQQHRQEPIRKTVEIDITRALLEEKHFELRVNVIDTPGFGDNVNNNKAWQPLVDFIDDQHDSYMRQEQQPYRTKKFDLRVHAVLYFIRPTGHGLKPIDIETMKRLSTRANLIPVIAKADTLTAQELQQFKSRIRQVIEAQEIRIFTPPLDADSKEDAKSGSNPDSAAVEHARQLIEAMPFAIVGSEKKFDNGQGTQVVARKYPWGLVEIENDSHCDFRKLRALLLRTYLLDLISTTQEMHYETYRRLRLEGHENTGEGNEDFTLPAIAPARKLSHNPRYKEEENALKKYFTDQVKAEEQRFRQWEQNIVNERIRLNGDLEEIQGKVKKLEEQVKSLQVKKSHLK
chain 2: MDPLSSVQPASYVGFDTITNQIEHRLLKKGFQFNIMVVGQSGLGKSTLINTLFASHLIDSATGDDISALPVTKTTEMKISTHTLVEDRVRLNINVIDTPGFGDFIDNSKAWEPIVKYIKEQHSQYLRKELTAQRERFITDTRVHAILYFLQPNGKELSRLDVEALKRLTEIANVIPVIGKSDTLTLDERTEFRELIQNEFEKYNFKIYPYDSEELTDEELELNRSVRSIIPFAVVGSENEIEINGETFRGRKTRWSAINVEDINQCDFVYLREFLIRTHLQDLIETTSYIHYEGFRARQLIALKENANSRSSAHMSSNAIQR
chain 3: MSLKEEQVSIKQDPEQEERQHDQFNDVQIKQESQDHDGVDSQYTNGTQNDDSERFEAAESDVKVEPGLGMGITSSQSEKGQVLPDQPEIKFIRRQINGYVGFANLPKQWHRRSIKNGFSFNLLCVGPDGIGKTTLMKTLFNNDDIEANLVKDYEEELANDQEEEEGQGEGHENQSQEQRHKVKIKSYESVIEENGVKLNLNVIDTEGFGDFLNNDQKSWDPIIKEIDSRFDQYLDAENKINRHSINDKRIHACLYFIEPTGHYLKPLDLKFMQSVYEKCNLIPVIAKSDILTDEEILSFKKTIMNQLIQSNIELFKPPIYSNDDAENSHLSERLFSSLPYAVIGSNDIVENYSGNQVRGRSYPWGVIEVDNDNHSDFNLLKNLLIKQFMEELKERTSKILYENYRSSKLAKLGIKQDNSVFKEFDPISKQQEEKTLHEAKLAKLEIEMKTVFQQKVSEKEKKLQKSETELFARHKEMKEKLTKQLKALEDKKKQLELSINSASPNVNHSPVPTKKKGFLR
chain 4: MSGIIDASSALRKRKHLKRGITFTVMIVGQSGSGRSTFINTLCGQQVVDTSTTILLPTDTSTEIDLQLREETVELEDDEGVKIQLNIIDTPGFGDSLDNSPSFEIISDYIRHQYDEILLEESRVRRNPRFKDGRVHCCLYLINPTGHGLKEIDVEFIRQLGSLVNIIPVISKSDSLTRDELKLNKKLIMEDIDRWNLPIYNFPFDEDEISDEDYETNMYLRTLLPFAIIGSNEVYEMGGDVGTIRGRKYPWGILDVEDSSISDFVILRNALLISHLHDLKNYTHEILYERYRTEALSGESVAAESIRPNLTKLNGSSSSSTTTRRNTNPFKQSNNINNDVLNPASDMHGQSTGENNETYMTREEQIRLEEERLKAFEERVQQELLLKRQELLQREKELREIEARLEKEAKIKQEE
B2: Cdc11 D65T septin complex (Cdc10, Cdc3, Cdc12, Cdc11 D65T-GFP) (complex)
chain 1: MSAATATAAPVPPPVGISNLPNQRYKIVNEEGGTFTVMLCGESGLGKTTFINTLFQTVLKRADGQQHRQEPIRKTVEIDITRALLEEKHFELRVNVIDTPGFGDNVNNNKAWQPLVDFIDDQHDSYMRQEQQPYRTKKFDLRVHAVLYFIRPTGHGLKPIDIETMKRLSTRANLIPVIAKADTLTAQELQQFKSRIRQVIEAQEIRIFTPPLDADSKEDAKSGSNPDSAAVEHARQLIEAMPFAIVGSEKKFDNGQGTQVVARKYPWGLVEIENDSHCDFRKLRALLLRTYLLDLISTTQEMHYETYRRLRLEGHENTGEGNEDFTLPAIAPARKLSHNPRYKEEENALKKYFTDQVKAEEQRFRQWEQNIVNERIRLNGDLEEIQGKVKKLEEQVKSLQVKKSHLK
chain 2: MDPLSSVQPASYVGFDTITNQIEHRLLKKGFQFNIMVVGQSGLGKSTLINTLFASHLIDSATGDDISALPVTKTTEMKISTHTLVEDRVRLNINVIDTPGFGDFIDNSKAWEPIVKYIKEQHSQYLRKELTAQRERFITDTRVHAILYFLQPNGKELSRLDVEALKRLTEIANVIPVIGKSDTLTLDERTEFRELIQNEFEKYNFKIYPYDSEELTDEELELNRSVRSIIPFAVVGSENEIEINGETFRGRKTRWSAINVEDINQCDFVYLREFLIRTHLQDLIETTSYIHYEGFRARQLIALKENANSRSSAHMSSNAIQR
chain 3: MSLKEEQVSIKQDPEQEERQHDQFNDVQIKQESQDHDGVDSQYTNGTQNDDSERFEAAESDVKVEPGLGMGITSSQSEKGQVLPDQPEIKFIRRQINGYVGFANLPKQWHRRSIKNGFSFNLLCVGPDGIGKTTLMKTLFNNDDIEANLVKDYEEELANDQEEEEGQGEGHENQSQEQRHKVKIKSYESVIEENGVKLNLNVIDTEGFGDFLNNDQKSWDPIIKEIDSRFDQYLDAENKINRHSINDKRIHACLYFIEPTGHYLKPLDLKFMQSVYEKCNLIPVIAKSDILTDEEILSFKKTIMNQLIQSNIELFKPPIYSNDDAENSHLSERLFSSLPYAVIGSNDIVENYSGNQVRGRSYPWGVIEVDNDNHSDFNLLKNLLIKQFMEELKERTSKILYENYRSSKLAKLGIKQDNSVFKEFDPISKQQEEKTLHEAKLAKLEIEMKTVFQQKVSEKEKKLQKSETELFARHKEMKEKLTKQLKALEDKKKQLELSINSASPNVNHSPVPTKKKGFLR
chain 4: MSGIIDASSALRKRKHLKRGITFTVMIVGQSGSGRSTFINTLCGQQVVDTSTTILLPTDTSTEITLQLREETVELEDDEGVKIQLNIIDTPGFGDSLDNSPSFEIISDYIRHQYDEILLEESRVRRNPRFKDGRVHCCLYLINPTGHGLKEIDVEFIRQLGSLVNIIPVISKSDSLTRDELKLNKKLIMEDIDRWNLPIYNFPFDEDEISDEDYETNMYLRTLLPFAIIGSNEVYEMGGDVGTIRGRKYPWGILDVEDSSISDFVILRNALLISHLHDLKNYTHEILYERYRTEALSGESVAAESIRPNLTKLNGSSSSSTTTRRNTNPFKQSNNINNDVLNPASDMHGQSTGENNETYMTREEQIRLEEERLKAFEERVQQELLLKRQELLQREKELREIEARLEKEAKIKQEE
B3: Cdc12 T75A septin complex (Cdc10, Cdc3, Cdc12 T75A, Cdc11) (complex)
chain 1: MSAATATAAPVPPPVGISNLPNQRYKIVNEEGGTFTVMLCGESGLGKTTFINTLFQTVLKRADGQQHRQEPIRKAVEIDITRALLEEKHFELRVNVIDTPGFGDNVNNNKAWQPLVDFIDDQHDSYMRQEQQPYRTKKFDLRVHAVLYFIRPTGHGLKPIDIETMKRLSTRANLIPVIAKADTLTAQELQQFKSRIRQVIEAQEIRIFTPPLDADSKEDAKSGSNPDSAAVEHARQLIEAMPFAIVGSEKKFDNGQGTQVVARKYPWGLVEIENDSHCDFRKLRALLLRTYLLDLISTTQEMHYETYRRLRLEGHENTGEGNEDFTLPAIAPARKLSHNPRYKEEENALKKYFTDQVKAEEQRFRQWEQNIVNERIRLNGDLEEIQGKVKKLEEQVKSLQVKKSHLK
chain 2: MDPLSSVQPASYVGFDTITNQIEHRLLKKGFQFNIMVVGQSGLGKSTLINTLFASHLIDSATGDDISALPVTKTTEMKISTHTLVEDRVRLNINVIDTPGFGDFIDNSKAWEPIVKYIKEQHSQYLRKELTAQRERFITDTRVHAILYFLQPNGKELSRLDVEALKRLTEIANVIPVIGKSDTLTLDERTEFRELIQNEFEKYNFKIYPYDSEELTDEELELNRSVRSIIPFAVVGSENEIEINGETFRGRKTRWSAINVEDINQCDFVYLREFLIRTHLQDLIETTSYIHYEGFRARQLIALKENANSRSSAHMSSNAIQR
chain 3: MSLKEEQVSIKQDPEQEERQHDQFNDVQIKQESQDHDGVDSQYTNGTQNDDSERFEAAESDVKVEPGLGMGITSSQSEKGQVLPDQPEIKFIRRQINGYVGFANLPKQWHRRSIKNGFSFNLLCVGPDGIGKTTLMKTLFNNDDIEANLVKDYEEELANDQEEEEGQGEGHENQSQEQRHKVKIKSYESVIEENGVKLNLNVIDTEGFGDFLNNDQKSWDPIIKEIDSRFDQYLDAENKINRHSINDKRIHACLYFIEPTGHYLKPLDLKFMQSVYEKCNLIPVIAKSDILTDEEILSFKKTIMNQLIQSNIELFKPPIYSNDDAENSHLSERLFSSLPYAVIGSNDIVENYSGNQVRGRSYPWGVIEVDNDNHSDFNLLKNLLIKQFMEELKERTSKILYENYRSSKLAKLGIKQDNSVFKEFDPISKQQEEKTLHEAKLAKLEIEMKTVFQQKVSEKEKKLQKSETELFARHKEMKEKLTKQLKALEDKKKQLELSINSASPNVNHSPVPTKKKGFLR
chain 4: MSGIIDASSALRKRKHLKRGITFTVMIVGQSGSGRSTFINTLCGQQVVDTSTTILLPTDTSTEIDLQLREETVELEDDEGVKIQLNIIDTPGFGDSLDNSPSFEIISDYIRHQYDEILLEESRVRRNPRFKDGRVHCCLYLINPTGHGLKEIDVEFIRQLGSLVNIIPVISKSDSLTRDELKLNKKLIMEDIDRWNLPIYNFPFDEDEISDEDYETNMYLRTLLPFAIIGSNEVYEMGGDVGTIRGRKYPWGILDVEDSSISDFVILRNALLISHLHDLKNYTHEILYERYRTEALSGESVAAESIRPNLTKLNGSSSSSTTTRRNTNPFKQSNNINNDVLNPASDMHGQSTGENNETYMTREEQIRLEEERLKAFEERVQQELLLKRQELLQREKELREIEARLEKEAKIKQEE

Target: the molecule itself
Test: TIRF microscopy of filament polymerisation

Q: Does B1 bind?
A: Result: binds

Q: Does B2 bind?
A: Result: binds

Q: Does B3 bind?
A: Result: binds
